# Measurements reported in patent US20200268901A1 (Bristol-Myers Squibb, published 2020).
# Substitutions are numbered along the chain they refer to. In names and notes the source's numbering stands. Several values for one entry are separate records, joined by “and”; a condition that tells them apart may be missing. Identical values can stand only once. Like-named read-outs stand apart in the source and are kept apart here.
# T1: human CD73 on Calu6 cells (human, UniProt P21589 27-549)
# T1 sequence (looked up): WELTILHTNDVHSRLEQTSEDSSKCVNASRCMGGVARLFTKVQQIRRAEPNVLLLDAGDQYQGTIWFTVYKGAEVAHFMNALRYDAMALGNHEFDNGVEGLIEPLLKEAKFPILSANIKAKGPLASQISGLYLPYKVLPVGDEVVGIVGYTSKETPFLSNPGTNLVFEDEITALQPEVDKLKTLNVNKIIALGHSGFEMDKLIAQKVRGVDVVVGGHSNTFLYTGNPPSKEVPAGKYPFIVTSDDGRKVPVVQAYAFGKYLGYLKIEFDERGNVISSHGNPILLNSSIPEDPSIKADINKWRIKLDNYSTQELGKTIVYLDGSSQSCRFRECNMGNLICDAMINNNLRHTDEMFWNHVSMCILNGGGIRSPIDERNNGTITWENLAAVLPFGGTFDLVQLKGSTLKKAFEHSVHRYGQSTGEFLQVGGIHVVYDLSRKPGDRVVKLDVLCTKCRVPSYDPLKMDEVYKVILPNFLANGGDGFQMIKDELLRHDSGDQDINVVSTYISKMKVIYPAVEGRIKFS
# T2: N-hCD73-his (N-terminal domain of human CD73, residues 26-336) (human, UniProt P21589 26-336)
# T2 construct: not shown: his tag
# T2 sequence (looked up): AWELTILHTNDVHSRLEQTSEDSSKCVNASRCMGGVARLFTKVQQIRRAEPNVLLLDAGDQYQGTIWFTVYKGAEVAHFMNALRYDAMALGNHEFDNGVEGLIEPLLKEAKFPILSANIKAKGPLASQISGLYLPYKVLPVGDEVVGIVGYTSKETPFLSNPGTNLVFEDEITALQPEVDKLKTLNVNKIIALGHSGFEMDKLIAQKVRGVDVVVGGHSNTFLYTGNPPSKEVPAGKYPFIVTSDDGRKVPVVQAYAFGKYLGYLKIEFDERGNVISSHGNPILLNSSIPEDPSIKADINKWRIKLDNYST
# T3: human GITR on cells (activated human T cells; 3A9-hGITR cells) (human, UniProt Q9Y5U5 26-241)
# T3 sequence (looked up): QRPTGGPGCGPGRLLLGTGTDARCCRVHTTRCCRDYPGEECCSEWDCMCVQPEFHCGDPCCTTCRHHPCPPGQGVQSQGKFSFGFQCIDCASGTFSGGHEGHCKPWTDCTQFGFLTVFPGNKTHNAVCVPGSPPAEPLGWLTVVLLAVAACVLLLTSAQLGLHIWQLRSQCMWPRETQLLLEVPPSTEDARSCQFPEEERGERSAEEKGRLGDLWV
# B1: CD73.4-IgG2.3G1.1f-KH (antibody)
# heavy: QVQLVESGGGVVQPGRSLRLSCAASGFTFSNYGMHWVRQAPGKGLEWVAVILYDGSNKYYPDSVKGRFTISRDNSKNTLYLQMNSLRAEDTAVYYCARGGSSWYPDSFDIWGQGTMVTVSSASTKGPSVFPLAPCSRSTSESTAALGCLVKDYFPEPVTVSWNSGALTSGVHTFPAVLQSSGLYSLSSVVTVPSSNFGTQTYTCNVDHKPSNTKVDKTVERKSCVECPPCPAPPVAGPSVFLFPPKPKDTLMISRTPEVTCVVVDVSHEDPEVKFNWYVDGVEVHNAKTKPREEQYNSTYRVVSVLTVLHQDWLNGKEYKCKVSNKALPSSIEKTISKAKGQPREPQVYTLPPSREEMTKNQVSLTCLVKGFYPSDIAVEWESNGQPENNYKTTPPVLDSDGSFFLYSKLTVDKSRWQQGNVFSCSVMHEALHNHYTQKSLSLSPGK
# light: not shown
# notes: also called CD73.4-IgG2-C219S-IgG1.1f; CD73.4-IgG2CS-IgG1.1f
# B2: CD73.4-IgG2.5G1.1f-KH (antibody)
# heavy: B1 heavy with C135S, S223C
# light: not shown
# B3: CD73.4-IgG2.5 (antibody)
# heavy: QVQLVESGGGVVQPGRSLRLSCAASGFTFSNYGMHWVRQAPGKGLEWVAVILYDGSNKYYPDSVKGRFTISRDNSKNTLYLQMNSLRAEDTAVYYCARGGSSWYPDSFDIWGQGTMVTVSSASTKGPSVFPLAPSSRSTSESTAALGCLVKDYFPEPVTVSWNSGALTSGVHTFPAVLQSSGLYSLSSVVTVPSSNFGTQTYTCNVDHKPSNTKVDKTVERKCCVECPPCPAPPVAGPSVFLFPPKPKDTLMISRTPEVTCVVVDVSHEDPEVQFNWYVDGVEVHNAKTKPREEQFNSTFRVVSVLTVVHQDWLNGKEYKCKVSNKGLPAPIEKTISKTKGQPREPQVYTLPPSREEMTKNQVSLTCLVKGFYPSDIAVEWESNGQPENNYKTTPPMLDSDGSFFLYSKLTVDKSRWQQGNVFSCSVMHEALHNHYTQKSLSLSPGK
# light: not shown
# B4: CD73.10-IgG2-C219S (antibody)
# heavy: QVQLVESGGGVVQPGRSLRLSCAASGFTFSNYGMHWVRQAPGKGLEWVAVIWYDESNKYYPDSVKGRFTISRDNSKNTLYLQMNSLRAEDTAVYYCARGGSSWYPDSFDIWGQGTMVTVSSASTKGPSVFPLAPCSRSTSESTAALGCLVKDYFPEPVTVSWNSGALTSGVHTFPAVLQSSGLYSLSSVVTVPSSNFGTQTYTCNVDHKPSNTKVDKTVERKSCVECPPCPAPPVAGPSVFLFPPKPKDTLMISRTPEVTCVVVDVSHEDPEVQFNWYVDGVEVHNAKTKPREEQFNSTFRVVSVLTVVHQDWLNGKEYKCKVSNKGLPAPIEKTISKTKGQPREPQVYTLPPSREEMTKNQVSLTCLVKGFYPSDIAVEWESNGQPENNYKTTPPMLDSDGSFFLYSKLTVDKSRWQQGNVFSCSVMHEALHNHYTQKSLSLSPG
# light: not shown
# notes: anti-CD73; also called CD73.10-IgG2CS
# B5: CD73.10-IgG2-C219S-IgG1.1 (antibody)
# heavy: B4 heavy with Q274K, F296Y, F300Y, V309L, G327A, A330S, P331S, T339A
# light: not shown
# notes: anti-CD73; also called CD73.10-IgG2CS-IgG1.1f
# B6: CD73.4-IgG2.5-plusTHT (antibody)
# heavy: QVQLVESGGGVVQPGRSLRLSCAASGFTFSNYGMHWVRQAPGKGLEWVAVILYDGSNKYYPDSVKGRFTISRDNSKNTLYLQMNSLRAEDTAVYYCARGGSSWYPDSFDIWGQGTMVTVSSASTKGPSVFPLAPSSRSTSESTAALGCLVKDYFPEPVTVSWNSGALTSGVHTFPAVLQSSGLYSLSSVVTVPSSNFGTQTYTCNVDHKPSNTKVDKTVERKCCVETHTCPPCPAPPVAGPSVFLFPPKPKDTLMISRTPEVTCVVVDVSHEDPEVQFNWYVDGVEVHNAKTKPREEQFNSTFRVVSVLTVVHQDWLNGKEYKCKVSNKGLPAPIEKTISKTKGQPREPQVYTLPPSREEMTKNQVSLTCLVKGFYPSDIAVEWESNGQPENNYKTTPPMLDSDGSFFLYSKLTVDKSRWQQGNVFSCSVMHEALHNHYTQKSLSLSPGK
# light: not shown
# B7: 11F11 (antibody, human IgG2, kappa, V domains shown)
# VH: QVQLVESGGGVVQPGRSLRLSCATSGFTFSNYGMHWVRQAPGKGLEWVAVILYDGSNKYYPDSVKGRFTISRDNSKNTLYLQMNSLRAEDTAVYYCARGGSSWYPDSFDIWGQGTMVTVSS
# VL: DIQMTQSPSSLSASVGDRVTITCRASQGISSWLAWYQQKPEKAPKSLIYAASSLQSGVPSRFSGSGSGTDFTLTISSLQPEDFATYYCQQYNSYPLTFGGGTKVEIKR
# notes: anti-CD73, IgG2; also called 11F11(IgG2)
# B8: anti-GITR-IgG2 (antibody)
# heavy: QVQLVESGGGVVQPGRSLRLSCAASGFTFSSYGMHWVRQAPGKGLEWVAVIWYEGSNKYYADSVKGRFTISRDNSKNTLYLQMNSLRAEDTAVYYCARGGSMVRGDYYYGMDVWGQGTTVTVSSASTKGPSVFPLAPCSRSTSESTAALGCLVKDYFPEPVTVSWNSGALTSGVHTFPAVLQSSGLYSLSSVVTVPSSNFGTQTYTCNVDHKPSNTKVDKTVERKCCVECPPCPAPPVAGPSVFLFPPKPKDTLMISRTPEVTCVVVDVSHEDPEVQFNWYVDGVEVHNAKTKPREEQFNSTFRVVSVLTVVHQDWLNGKEYKCKVSNKGLPAPIEKTISKTKGQPREPQVYTLPPSREEMTKNQVSLTCLVKGFYPSDIAVEWESNGQPENNYKTTPPMLDSDGSFFLYSKLTVDKSRWQQGNVFSCSVMHEALHNHYTQKSLSLSPGK
# light: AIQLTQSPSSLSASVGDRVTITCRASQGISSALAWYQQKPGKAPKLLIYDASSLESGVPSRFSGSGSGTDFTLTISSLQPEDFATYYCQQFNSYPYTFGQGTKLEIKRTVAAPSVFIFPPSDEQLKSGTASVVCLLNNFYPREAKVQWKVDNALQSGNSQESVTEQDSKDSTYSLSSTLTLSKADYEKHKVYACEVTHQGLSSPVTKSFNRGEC
# Key:
# [1] = target: T1, human CD73 on Calu6 cells; assay: cell-based or functional assay
# [2] = target: T1, human CD73 on Calu6 cells; assay: cell-based or functional assay; remark: listed apart in the source
# [3] = target: T1, human CD73 on Calu6 cells; assay: cell-based or functional assay; remark: listed apart in the source
# [4] = target: T1, human CD73 on Calu6 cells; assay: cell-based or functional assay; remark: listed apart in the source
# [5] = target: T2, N-hCD73-his (N-terminal domain of human …); assay: SPR (Biacore T100), mAb captured on protein A, N-hCD73-his analyte
# Experimental: The affinity of the antibodies for human CD73 was measured to determine whether the change of the constant region affects them. The affinities were determined by Surface Plasmon Resonance (SPR) as follows. […] For these experiments, protein A (Pierce) was immobilized to a density of 3000-4000 RU on flow cells 1-4 of a CM5 sensor chip (GE Healthcare) using standard ethyl(dimethylaminopropyl) carbodiimide (EDC)/N-hydroxysuccinimide (NHS) chemistry, with ethanolamine blocking, in a running buffer of 0.01 M HEPES pH 7.4, 0.15 M NaCl, 3 mM EDTA, 0.005% v/v tween 20. […] The running buffer for the kinetic experiments was 10 mM sodium phosphate, 130 mM sodium chloride, 0.05% tween 20, pH 7.1. The surfaces were regenerated after each cycle using two 30 s pulses of 10 mM glycine pH 1.5 at a flow rate of 30 μl/min. Sensogram data was double-referenced and then fitted to a 1:1 Langmuir model using Biacore T100 evaluation software v2.0.4, to determine the association rate constant (ka), the dissociation rate constant (kd), and the equilibrium dissociation constant (KD).
# [6] = target: T3, human GITR on cells (activated human T …); assay: cell-based or functional assay
Binder,"T1/2 (hr) of CD73 internalization, Calu6 cells [2]","T1/2 (hr) of CD73 internalization, NCI-H292 cells [2]","Ymax (%) of CD73 internalization, Calu6 cells [2]","Ymax (%) of CD73 internalization, NCI-H292 cells [2]","EC50 (nM) of CD73 internalization, Calu6 cells, 2 h [3]",Ymax of CD73 internalization (% of 100 nM 11F11) [3],Kd [5],koff [5],kon [5],also measured
B1,0.351 h,0.276 h,81%,90.3%,–,–,–,–,–,"T1/2 (hr) of CD73 internalization, Calu6 cells [1]: 0.566 h; T1/2 (hr) of CD73 internalization, NCI-H292 cells [1]: 0.263 h; T1/2 (hr) of CD73 internalization, NCI-H1437 cells [1]: 0.316 h; T1/2 (hr) of CD73 internalization, NCI-H1437 cells (no wash) [1]: 0.342 h; T1/2 (hr) of CD73 internalization, SNU-C1 cells [1]: 0.495 h; T1/2 (hr) of CD73 internalization, SNU-C1 cells (no wash) [1]: 1.02 h; Ymax (%) of CD73 internalization, Calu6 cells [1]: 76.8%; Ymax (%) of CD73 internalization, NCI-H292 cells [1]: 77.6%"
B2,0.353 h,0.299 h,79.6%,90.9%,–,–,–,–,–,–
B3,0.348 h,0.306 h,79%,89.6%,–,–,–,–,–,–
B4,–,–,–,–,0.67 nM,99%,6.2 nM and 8.3 nM,0.0014 s⁻¹ and 0.0018 s⁻¹,220000 M⁻¹ s⁻¹,"% internalization, Calu6 cells [4]: 91%; % internalization, H228 cells [4]: 93%; % internalization, H2030 cells [4]: 85%; % internalization, HCC15 cells [4]: 91%; T1/2 min of internalization, Calu6 cells [4]: 3 min; T1/2 min of internalization, H228 cells [4]: 9.7 min; T1/2 min of internalization, H2030 cells [4]: 3.3 min; T1/2 min of internalization, HCC15 cells [4]: 2.6 min"
B5,–,–,–,–,0.87 nM,99%,5.7 nM and 6.8 nM,0.0014 s⁻¹ and 0.0016 s⁻¹,240000 M⁻¹ s⁻¹ and 230000 M⁻¹ s⁻¹,"% internalization, Calu6 cells [4]: 91%; % internalization, H228 cells [4]: 92%; % internalization, H2030 cells [4]: 87%; % internalization, HCC15 cells [4]: 91%; T1/2 min of internalization, Calu6 cells [4]: 3.1 min; T1/2 min of internalization, H228 cells [4]: 9.4 min; T1/2 min of internalization, H2030 cells [4]: 4.3 min; T1/2 min of internalization, HCC15 cells [4]: 3 min"
B6,0.287 h,0.257 h,80.2%,89.6%,–,–,–,–,–,–
B7,–,–,–,–,0.58 nM,98%,1.6 nM and 0.56 nM,0.00042 s⁻¹ and 0.00016 s⁻¹,260000 M⁻¹ s⁻¹ and 290000 M⁻¹ s⁻¹,–
B8,–,–,–,–,–,–,–,–,–,"EC50 (nM), phospho-p65 NFkB signaling, CD4+ T cells [6]: 12.8 nM; EC50 (nM), phospho-p65 NFkB signaling, CD8+ T cells [6]: 9 nM; Emax (%), phospho-p65 NFkB signaling, CD4+ T cells [6]: 69%; Emax (%), phospho-p65 NFkB signaling, CD8+ T cells [6]: 85%"
